In patent US7910344B2, “Proteins having tyrosinase activity” (Valtion teknillinen tutkimuskeskus, priority 2005, dated 2011):
Entries after “also recorded” stand apart in the source; their conditions may differ.

What was measured:
[1] = pH optimum of the tyrosinase by oxygen consumption measurements; format: biochemical; details: 15 mM L-Dopa, 4.3 μg purified tyrosinase
Procedure: pH optimum for the tyrosinase was studied by oxygen consumption measurements. Measurements were performed with a single channel oxygen meter (Precision sensing GmbH, Germany) containing fiber-optic oxygen minisensors with measurement range 0-100% oxygen. L-Dopa in 15 mM concentration, dissolved in 0.1 M sodium phosphate buffer, pH 7.0, was used as substrate. Reactions were carried out with 1.8 ml substrate solution and with 4.3 μg of the purified T. reesei tyrosinase. Three different buffers were used according to their buffer capacity. McIlvaine buffer was used within a pH range of 2-7, Tris-HCl buffer (50 mM) within a pH range 7-9 and borate buffer (12.5 mM) within a pH range of 8-9.5. The pH optimum of TYR2 is at 8-8.5. The enzyme has relatively high activity within a quite wide pH range, 5-9. […] In the measurements with Tris-HCl buffer in pH 8, 8.5 and 9.0 also a blank test without enzyme addition was performed to correct the effect of auto-oxidation in results. The pH optimum of the tyrosinase seemed to be dependant on the buffer.

[2] = Isoelectric focusing; format: physicochemical; details: purified TYR2, Coomassie Blue staining, pH range 3.5-9.5
Procedure: The isoelectric point (pI) of the enzyme from culture supernatant and purified enzyme was determined by isoelectric focusing within a pH range of 3.5-9.5 (Ampholine PAGplate 3.5-9.5 for IEF, Amersham Bioscience) on an LKB 2117 Multiphor II Electrophoresis System (LKB Pharmacia, Bromma, Sweden) according to manufacturer's instructions. Bands containing tyrosinase activity were visualized by staining the gel with 15 mM L-Dopa in 0.1 M sodium phosphate buffer (pH 7.0) and proteins by Coomassie Blue staining. […] Under native conditions in isoelectric focusing both the culture filtrate and the purified tyrosinase didn't show a clear band, when stained with L-Dopa, instead the activity was observed as a brown zone at about pH 9.

[3] = Stability of the enzyme at different pH-values (residual activity on L-Dopa); format: physicochemical; details: McIlvaine buffer, room temperature
Procedure: The stability of the enzyme at different pH-values was determined in McIlvaine, 50 mM Na2HPO4-25 mM citric acid, buffer by incubating the enzyme solution in different pH-values at room temperature. The residual tyrosinase activity was determined by measuring the activity of the enzyme solutions with L-Dopa as substrate.

[4] = test system: salt soluble proteins (SSP) of chicken breast muscle myofibrils; assay: Cross-linking of chicken myofibril salt soluble proteins followed by SDS-PAGE
Procedure: Changes in the molecular weight of the isolated salt soluble proteins (SSP) of chicken breast muscle myofibrils caused by TYR2 were analysed by SDS-PAGE. SPP were isolated according to Xiong and Brekke, 1989. For enzyme treatment SSP was suspended in 50 mM Na-phosphate buffer, pH 7, containing 0.6 M NaCl to the protein concentration of 3 mg/ml. 120 nkat or 240 nkat of TYR2 per gram of protein was added to the suspension. Control suspension was treated in a similar way but without enzyme addition. Reaction mixture was incubated at 30° C. Samples were drawn at the time points of 2 min, 1 hour, 3 hours and 24 hours. SDS-PAGE sample buffer was added and the samples were heated in a boiling water bath. 20 μg of protein from each sample was loaded onto 12% Tris-HCl polyacryl amide gels. SDS-PAGE was performed according to Laemmli, 1970.

[5] = test system: α-casein; assay: Cross-linking of model proteins followed by changes in MW on SDS-PAGE
Procedure: The cross-linking ability in model proteins of TYR2 was also analyzed by following changes in MW on SDS-PAGE. […] Details are given in examples 8 and 9.

[6] = test system: chicken breast myofibrils; assay: Gel forming of chicken myofibril matrix, storage modulus (G′), Bohlin Rheometer; details: 240 nkat TYR2/g protein, 25, 30 and 40° C., 3 hours, pH 6
Procedure: Ability of TYR2 to form cross-links in a chicken myofibril matrix was also investigated as a development of storage modulus (G′) measuring gel forming ability at low deformation. Measurements were carried out during heating at constant temperature using a Bohlin Rheometer. Chicken breast myofibrils were isolated according to Xiong and Brekke (1989) omitting EDTA and NaN3 from the isolation buffer. Isolated myofibrils were suspended in 50 mM Na-phosphate buffer, pH 6, supplemented with 0.30 M NaCl to the protein concentration of 40 mg/ml. Suspensions were treated with 240 nkat of TYR2 per gram of protein at 25° C., 30° C. and 40° C. for 3 hours. Control samples were treated in a similar way but without enzyme.

[7] = test system: caseinate; assay: Caseinate gel hardness by Texture Analyzer; details: 3% caseinate, 0.4% GDL, 20 nkat/g protein TYR2, 22 hours, room temperature
Procedure: 3% of commercial caseinate was mixed in water and 0.4% GDL (glucono-delta-lactone) and 20 nkat/g protein of TYR2 was added to the mixture. It was allowed to rest for 22 hours at room temperature, whereafter the gel hardness was measured by Texture Analyzer (FIG. 6).

[8] = Kieffer extensibility test of wheat dough; details: 1 and 10 nkat/g flour, resting 15-45 min, about 22° C.
Procedure: The influence of TYR2 on the large deformation rheology of wheat dough was investigated by using Kieffer extensibility rig (Stable Micro Systems, Ltd. United Kingdom). Dough extensibility and resistance to extension were measured as a function of enzyme dosage and dough's resting time.
Wheat flour was mixed with Farinograph (Brabender, Germany) using 12 g flour and 7.2 ml liquid phase (60%). Tyrosinase (1 and 10 nkat/g flour) was added to water right before mixing with flour. Mixing time was 4 min. Subsequently, dough was placed into a mould to produce approximately 10-12 test strings. The pressed mould was kept at room temperature for 15-45 min to allow stress relaxation. In the Kieffer tests, dough strings were centrally extended until the elastic limit of the string was exceeded and it ruptured. Maximum resistance Rmax, maximum extensibility Emax and extensibility Ex at Rmax were determined by recording the peak force and the distance at the maximum and at the extension limit. All dough preparations, enzyme treatments and measurements were performed at room temperature, approximately at 22° C.

B1: TYR2: extracellular tyrosinase of Trichoderma reesei encoded by tyr2, SEQ ID NO:4, 571 amino acids, C-terminally processed (protein, listed as Trichoderma reesei)
chain: MLLSASLSALALATVSLAQGTTHIPVTGVPVSPGAAVPLRQNINDLAKSGPQWDLYVQAMYNMSKMDSHDPYSFFQIAGIHGAPYIEYNKAGAKSGDGWLGYCPHGEDLFISWHRPYVLLFEQALVSVAKGIANSYPPSVRAKYQAAAASLRAPYWDWAADSSVPAVTVPQTLKINVPSGSSTKTVDYTNPLKTYYFPRMSLTGSYGEFTGGGNDHTVRCAASKQSYPATANSNLAARPYKSWILVTDTESGPQYDVLTNSQNFADFASTSGPGINVEQIHNAIHWDGACGSQFLAPDYSGFDPLFFMHHAQVDRMWAFWEAIMPSSPLFTASYKGQSRFNSKSGSTITPDSPLQPFYQANGKFHTSNTVKSIQGMGYSYQGIEYWQKSQAQIKSSVTTIINQLYGPNSGKKRNAPRDFLSDIVTDVENLIKTRYFAKISVNVTEVTVRPAEINVYVGGQKAGSLIVMKLPAEGTVNGGFTIDNPMQSILHGGLRNAVQAFTEDIEVEILSKDGQAIPLETVPSLSIDLEVANVTLPSALDQLPKYGQRSRHRAKAAQRGHRFAVPHIPPL
modifications: C-terminally processed
With B1 the “pH range of relatively high activity” value [1] was 5-9, the pH optimum ([1]; McIlvaine, Tris-HCl, borate buffers) was 8-8.5 and the “Isoelectric point (bands in isoelectric focusing)” value [2] was about 9. For the same molecule, the pH stability [3] was “good stability at neutral and alkaline pH”, the “Detectable electrophoretic changes of SSP” value ([4]; 120 or 240 nkat TYR2/g protein, 30° C., pH 7, up to 24 h) was “progressive disappearance of the myosin band of ˜200 kDa; also recorded: progressive disappearance of the band of ˜36 kDa; also recorded: appearance of large molecular weight protein products (>200 kDa)” and the “Cross-linking ability (changes in MW on SDS-PAGE)” value ([4]; chicken myofibril) was “able to cross-link”. For the same molecule, the “Cross-linking ability (changes in MW on SDS-PAGE)” value [5] was “able to cross-link”, the “Storage modulus (G′), gel forming” value [6] was “greater increase in G′” and the “Hardness of caseinate gel” value [7] was “doubled the hardness of the caseinate gel”. For the same molecule, the “Dough extensibility Ex at Rmax” value [8] was “decreased the dough extensibility Ex at Rmax” and the “Maximum resistance Rmax of dough” value [8] was “increased the maximum resistance Rmax of dough”.
